Experimental data from patent US20250043302A1, “MUTATED HYDROXYPHENYLPYRUVATE DIOXYGENASE POLYPEPTIDE, AND CODING GENE AND USE THEREOF” (BEIJING DABEINONG BIOTECHNOLOGY CO., LTD., priority 2021, published 2025).
Changes are numbered by the printed parent chain. In names and notes the source's numbering stands.

B1: BnHPPDm-F372A-02: nucleotide sequence encoding Brassica napus HPPD with F372A; vector DBN11743 (nucleic acid)
DNA: ATGGGACATGAAAACGCGGCAGTGTGTGAAACTCAACAACATGATGACGCCGCCTCCCCGGGGTTTAAACTTGTCGGGTTCTCAAAATTTGTTAGGAAGAATCCAAAGTCTGACAAGTTCAAGGTGAAACGCTTCCACCACATCGAGTTCTGGTGCGGGGATGCAACAAATGTTTCACGCCGCTTTTCATGGGGACTAGGAATGAGGTTTAGCGCAAAGAGTGATCTCTCCACTGGTAATATGGTTCATGCGAGCTACTTGCTCACATCTGGAGACCTGAGATTCCTCTTCACCGCACCATATTCTCCCTCCCTGTCAGCTGGTGAAGCTCAGCCTTCAGCAACTGCAAGTATCCCTTCGTTTGATCATGCATCGTGCAGGTCTTTCTTCAGTTCACATGGACTCGGCGTCAGAGCAGTAGCGATCGAAGTAGAGGATGCTGAATCAGCTTTCTCCATATCTGTCGCCAACGGCGCGGTGCCTTCTTCTCCACCAAACGTCTTGAATGGTGCTGTTACCATTGCTGAGGTGAAGCTGTACGGAGATGTTGTTTTAAGATATGTTTCATATTACAATGGGACCGTTTCTTTTCTTCCCGGCTTTGAATCTGTTGATGATACTTCTTCCTTCCCTCTTGATTATGGGATCAGGCGGCTGGACCACGCCGTCGGCAACGTGCCGGAGTTAGGTCCTGCTTTGACATATCTTGCCGGCTTCACTGGATTCCATCAATTTGCAGAGTTTACGGCTGACGACGTGGGGACCGCGGAGAGTGGGCTGAACTCAGCAGTCTTGGCCAACAATGATGAAATGGTGCTCCTCCCCATCAATGAACCTGTGCATGGAACAAAGAGAAAGTCGCAGATTCAAACATTTTTAGAGCACAATGAGGGAGCTGGGCTACAGCACCTCGCATTGATGTCAGAAGATATTTTTCGAACGTTGAGGGAGATGCGGAAACGATCTGGTGTAGGCGGCTTTGACTTCATGCCATCCCCTCCGCCAACCTACTACAAGAACCTGAAGAAGAGGGTTGGAGACGTCCTTTCCGAGGAGCAAATTGAAGAATGTGAGGAGCTTGGAATTCTGGTGGACAGAGATGATCAAGGAACACTACTTCAGATCGCCACAAAACCATTGGGCGACAGGCCAACGATATTCATTGAGATCATTCAGCGCGTTGGATGCATGAAGCGTGATGAGGAAGGGAAGGTCTACCAGAGTGGCGGTTGTGGTGGATTTGGAAAAGGAAATTTTTCTGAGCTGTTCAAAAGCATAGAAGAGTATGAGAAAACATTGGAGGCCAAGCAGCTTGTTGGTTGA
modifications: BnHPPDm-F372A-02 Nucleotide Sequence
notes: vector DBN11743
B2: BnHPPDm-F383W-02: nucleotide sequence encoding Brassica napus HPPD with F383W; vector DBN11744 (nucleic acid)
DNA: B1 DNA with G1126T, C1127T, T1160G, C1161G
modifications: BnHPPDm-F383W-02 Nucleotide Sequence
notes: vector DBN11744

What was measured:
Format in all cases: in vivo
[1] = tested on: Arabidopsis thaliana T1 plants; assay: Topramezone tolerance of transgenic Arabidopsis thaliana T1 plants (spray, bleached leaf area grade, damage score); settings: 7 DAT, Table 4; for Classification and statistics of the grade of pesticide damage: Grade 0 / Classification and statistics of the grade of pesticide damage: Grade 1 / Classification and statistics of the grade of pesticide damage: Grade 2 / Classification and statistics of the grade of pesticide damage: Grade 3: number of plants; for Scores: pesticide damage score 0-100
Summary of the method: (§1)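 Damage graded 0–3 from the proportion of bleached leaf area 7 days after spraying. Plants were glufosinate-selected T1 lines, 18 days after sowing, plus vector and wild-type controls. Rates: mesotrione 52.5–420, isoxaflutole 35–280, topramezone 25–200 g ai/ha, with water (0×).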

[2] = tested on: Arabidopsis thaliana T1 plants; assay: Isoxaflutole tolerance of transgenic Arabidopsis thaliana T1 plants (spray, bleached leaf area grade, damage score); set-up: Scores (pesticide damage): scale not given here; settings: spray, Arabidopsis thaliana T1 plants; for Classification and statistics of the grade of pesticide damage: Grade 0 (number of plants) / Classification and statistics of the grade of pesticide damage: Grade 1 (number of plants) / Classification and statistics of the grade of pesticide damage: Grade 2 (number of plants) / Classification and statistics of the grade of pesticide damage: Grade 3 (number of plants): 16 plants
Summary of the method: as §1

[3] = tested on: Arabidopsis thaliana T1 plants; assay: Mesotrione tolerance of transgenic Arabidopsis thaliana T1 plants (spray, bleached leaf area grade, damage score); set-up: Scores: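 damage score 0-100 computed as Σ(N×S)/(T×M)×100 over grades 0-3 with higher meaning more damage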; settings: Arabidopsis thaliana T1 plants; for Grade 0 (classification and statistics of the grade of pesticide damage; number of plants) / Grade 1 (classification and statistics of the grade of pesticide damage; number of plants) / Grade 2 (classification and statistics of the grade of pesticide damage; number of plants) / Grade 3 (classification and statistics of the grade of pesticide damage; number of plants): 16 plants
Summary of the method: as §1

[4] = isoxaflutole 35 g ai/ha (0.5x field concentration)
[5] = isoxaflutole 70 g ai/ha (1x field concentration)

Row | Molecule | Classification and statistics of the grade of pesticide damage: Grade 0 ([1]; topramezone 25 g ai/ha (1×)) | Classification and statistics of the grade of pesticide damage: Grade 1 ([1]; topramezone 25 g ai/ha (1×)) | Classification and statistics of the grade of pesticide damage: Grade 2 ([1]; topramezone 25 g ai/ha (1×)) | Classification and statistics of the grade of pesticide damage: Grade 3 ([1]; topramezone 25 g ai/ha (1×)) | Classification and statistics of the grade of pesticide damage: Grade 0 ([1]; topramezone 100 g ai/ha (4×)) | Classification and statistics of the grade of pesticide damage: Grade 1 ([1]; topramezone 100 g ai/ha (4×)) | Classification and statistics of the grade of pesticide damage: Grade 2 ([1]; topramezone 100 g ai/ha (4×)) | Classification and statistics of the grade of pesticide damage: Grade 3 ([1]; topramezone 100 g ai/ha (4×)) | Scores ([1]; topramezone 25 g ai/ha (1×)) | Scores ([1]; topramezone 100 g ai/ha (4×)) | Resistance evaluation ([1]; topramezone 25 g ai/ha (1×)) | Resistance evaluation ([1]; topramezone 100 g ai/ha (4×)) | Resistance evaluation [2, 4] | Scores (pesticide damage) [2, 4] | Classification and statistics of the grade of pesticide damage: Grade 0 (number of plants) [2, 4] | Classification and statistics of the grade of pesticide damage: Grade 1 (number of plants) [2, 4] | Classification and statistics of the grade of pesticide damage: Grade 2 (number of plants) [2, 4] | Classification and statistics of the grade of pesticide damage: Grade 3 (number of plants) [2, 4] | Resistance evaluation [2, 5] | Scores (pesticide damage) [2, 5] | other results
1 | B1 | 0 | 4 | 12 | 0 | 0 | 0 | 0 | 16 | 58 | 100 | poorly | non-resistant (non-resistant plants (scores 68-100)) | Poorly | 52 | 0 | 7 | 9 | 0 | Non-resistant | 100 | Classification and statistics of the grade of pesticide damage: Grade 0 (number of plants) [2, 5]: 0; Classification and statistics of the grade of pesticide damage: Grade 1 (number of plants) [2, 5]: 0; Classification and statistics of the grade of pesticide damage: Grade 2 (number of plants) [2, 5]: 0; Classification and statistics of the grade of pesticide damage: Grade 3 (number of plants) [2, 5]: 16; Resistance evaluation ([3]; mesotrione 52.5 g ai/ha): Poorly resistant; Scores ([3]; mesotrione 52.5 g ai/ha): 63; Grade 0 (classification and statistics of the grade of pesticide damage; number of plants) ([3]; mesotrione 52.5 g ai/ha): 0; Grade 1 (classification and statistics of the grade of pesticide damage; number of plants) ([3]; mesotrione 52.5 g ai/ha): 4; Grade 2 (classification and statistics of the grade of pesticide damage; number of plants) ([3]; mesotrione 52.5 g ai/ha): 10; Grade 3 (classification and statistics of the grade of pesticide damage; number of plants) ([3]; mesotrione 52.5 g ai/ha): 2; Resistance evaluation ([3]; mesotrione 105 g ai/ha): Non-resistant; Scores ([3]; mesotrione 105 g ai/ha): 100; Grade 0 (classification and statistics of the grade of pesticide damage; number of plants) ([3]; mesotrione 105 g ai/ha): 0; Grade 1 (classification and statistics of the grade of pesticide damage; number of plants) ([3]; mesotrione 105 g ai/ha): 0; Grade 2 (classification and statistics of the grade of pesticide damage; number of plants) ([3]; mesotrione 105 g ai/ha): 0; Grade 3 (classification and statistics of the grade of pesticide damage; number of plants) ([3]; mesotrione 105 g ai/ha): 16
2 | B2 | 0 | 3 | 9 | 4 | 0 | 0 | 0 | 16 | 69 | 100 | non-resistant (non-resistant plants (scores 68-100)) | non-resistant (non-resistant plants (scores 68-100)) | Non-resistant | 94 | 0 | 0 | 3 | 13 | Non-resistant | 100 | Classification and statistics of the grade of pesticide damage: Grade 0 (number of plants) [2, 5]: 0; Classification and statistics of the grade of pesticide damage: Grade 1 (number of plants) [2, 5]: 0; Classification and statistics of the grade of pesticide damage: Grade 2 (number of plants) [2, 5]: 0; Classification and statistics of the grade of pesticide damage: Grade 3 (number of plants) [2, 5]: 16; Resistance evaluation ([3]; mesotrione 52.5 g ai/ha): Non-resistant; Scores ([3]; mesotrione 52.5 g ai/ha): 100; Grade 0 (classification and statistics of the grade of pesticide damage; number of plants) ([3]; mesotrione 52.5 g ai/ha): 0; Grade 1 (classification and statistics of the grade of pesticide damage; number of plants) ([3]; mesotrione 52.5 g ai/ha): 0; Grade 2 (classification and statistics of the grade of pesticide damage; number of plants) ([3]; mesotrione 52.5 g ai/ha): 0; Grade 3 (classification and statistics of the grade of pesticide damage; number of plants) ([3]; mesotrione 52.5 g ai/ha): 16; Resistance evaluation ([3]; mesotrione 105 g ai/ha): Non-resistant; Scores ([3]; mesotrione 105 g ai/ha): 100; Grade 0 (classification and statistics of the grade of pesticide damage; number of plants) ([3]; mesotrione 105 g ai/ha): 0; Grade 1 (classification and statistics of the grade of pesticide damage; number of plants) ([3]; mesotrione 105 g ai/ha): 0; Grade 2 (classification and statistics of the grade of pesticide damage; number of plants) ([3]; mesotrione 105 g ai/ha): 0; Grade 3 (classification and statistics of the grade of pesticide damage; number of plants) ([3]; mesotrione 105 g ai/ha): 16
